Laboratory results taken from patent US8173397B2, “Folded recombinant catalytic fragments of multidomain serine proteases, preparation and uses thereof” (TargetEx Kft., priority 2002, dated 2012).

What was measured:
C1-inhibitor = biological target: T1, C1-inhibitor (Homo sapiens, UniProt P05155); experiment: Rate of SDS stable complex formation of 125I-labelled MASP fragments with C1-inhibitor; assay type: biochemical
T1 construct: Purification of C1-inh and Alpha-2-Macroglobulin; from tissue
T1 sequence (P05155 23-500): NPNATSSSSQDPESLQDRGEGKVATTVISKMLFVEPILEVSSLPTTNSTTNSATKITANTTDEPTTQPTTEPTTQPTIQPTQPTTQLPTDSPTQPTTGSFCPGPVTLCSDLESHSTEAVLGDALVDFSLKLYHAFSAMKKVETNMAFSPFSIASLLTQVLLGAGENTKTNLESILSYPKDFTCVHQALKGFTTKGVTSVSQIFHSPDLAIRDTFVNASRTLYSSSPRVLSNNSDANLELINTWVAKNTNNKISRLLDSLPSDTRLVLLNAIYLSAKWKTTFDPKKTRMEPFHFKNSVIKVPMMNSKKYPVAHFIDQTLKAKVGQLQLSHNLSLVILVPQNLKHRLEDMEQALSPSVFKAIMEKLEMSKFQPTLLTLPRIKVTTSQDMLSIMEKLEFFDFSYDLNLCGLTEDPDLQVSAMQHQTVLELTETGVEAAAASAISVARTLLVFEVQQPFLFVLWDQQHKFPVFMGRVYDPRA
Protocol: To assess the rate of SDS stable complex formation between the MASP-1 and MASP-2 CCP1-CCP2-SP fragments and C1-inhibitor, the ^125I-labelled MASP fragments at concentrations ranging between 30-100 nM were incubated with 100-350 nM C1-inhibitor at 37° C. in 20 mM HEPES, 140 mM NaCl, pH 7.4 for 40 minutes. Typically 11-13 samples were taken at varying time periods. The reactions were stopped by reducing sample buffer containing 0.125 M Tris, 4.8% SDS, 8 M urea 20% glycerol, 720 mM mercaptoethanol, 0.02% bromophenol blue, pH6.8. The samples were further incubated at 37° C. for 30 minutes and run on reducing SDS-PAGE. Cleavages rates were visualized by means of autoradiography and the diminution of the reacted MASP chain was quantified using a GEL DOC 1000 instrument and Molecular Analyst Software for densitometric calculations (Bio-Rad, Hercules, Calif., USA). The kinetic constants were calculated assuming irreversible inhibition proceeded by reversible enzyme-inhibitor complex formation. Using steady-state approximation and neglecting the starting enzyme concentration compared to the starting inhibitor concentration ([I0]>>[E0]) the data was regressed on the following equation using non-linear regression methods: [E]=[E0]exp(−kobst); kobs=k2[I0]/(Ki+[I0]), where kobs is the observed pseudo-first order rate of reaction, k2 is the rate of irreversible enzyme-inhibitor complex formation and Ki is the inhibitory constant.

P1 Arg oligopeptide = experiment: Competing oligopeptide substrate library; assay type: biochemical; conditions: same conditions
Protocol: The specificities of the MASP-1 and MASP-2 CCP1-CCP2-SP fragments were tested on a competing oligopeptide library applying the method described before (Antal, 2001).
To further investigate the range of substrate specificity and relative specific activities of MASP-1 and MASP-2 we applied a competing oligopeptide substrate library. (Antal, 2001). This library contains a mixture of seven oligopeptides (each 13 amino acids in length) with different cleavage sites (P1) for both trypsin and chymotrypsin-like enzymes (His-Ala-Ala-Pro-Xxx-Ser-Ala-Asp-Ile-Gln-Ile-Asp-Ile, SEQ ID NO:18, where Xxx could be Lys, Arg, Tyr, Leu, Phe, Trp or Pro). The individual peptide substrates compete for the protease under investigation, in our cases for either the MASP-1 CCP1-CCP2-SP or the MASP-2 CCP1-CCP2-SP fragment. […] The MASP-1 catalytic fragment (CCP1-CCP2-SP) exerted a substantially larger activity on the Arg oligopeptide substrate than the MASP-2 fragment (FIG. 7). […] MASP-2 also preferred the Arg substrate to the Lys one, but the degree of preference was much less than that of MASP-1. A very similar specificity profile was obtained for trypsin in this oligopeptide library system.

C4 = C4 cleavage by MASP fragments; assay type: biochemical, human; conditions: 37° C., pH 7.4; averages of 2 to 4 experiments, standard errors
Protocol: C2, C3, C3(NH3), C4 cleavage—Serial dilutions of MASP-1 and MASP-2 fragments ranging between concentrations of 1 μM and 10 pM were incubated at 37° C. in 20 mM HEPES, 140 mM NaCl, pH 7.4 with C2, C3, C3(NH3) or C4 at typical concentrations of 0.5-1 μM. The cleavage was followed by SDS-PAGE under reducing conditions. Desirable concentrations of the MASP fragments for further detailed kinetic analysis were chosen to be where half of the protein substrates were hydrolyzed during the first 20 minutes of incubation. The protein substrates C2, C3, C3(NH3) or C4 were then incubated with the selected concentrations of the MASP fragments at 37° C. in 20 mM HEPES, 140 mM NaCl, pH 7.4. Typically 11-13 samples were taken at varying time periods but always within 50 minutes from the beginning of the reaction. Cleavages rates were quantified by measuring the diminution of the cleaved chain visualized by Coomassie stained SDS-PAGs using a GEL DOC 1000 instrument and Molecular Analyst Software for densitometric calculations (Bio-Rad, Hercules, Calif., USA). The reactions were assumed to be of the Michaelis-Menten type. In the case of C3 and C3(NH3) cleavage a further reasonable assumption of KM>>[substrate] was made. The constants KM, kcat and […] were estimated by unbiased non-linear regression methods regressing the data on the following equations: t=([S0]−[S]+KMln([S0]/[S]))/(kcat[E0]) or in the case of C3 and C3(NH3) cleavage on [S]=[S0]exp(−t[E0]kcat/KM).

B1: MASP-1γB: E. coli-expressed, refolded human MASP-1 CCP1-CCP2-SP fragment, Gly298 to Asn699 with N-terminal Ala-Ser-Met-Thr tag (protein)
chain 1: ASMTGNECPELQPPVHGKIEPSQAKYFFKDQVLVSCDTGYKVLKDNVEMDTFQIECLKDGTWSNKIPTCKIVDCRAPGELEHGLITFSTRNNLTTYKSEIKYSCQEPYYKMLNNNTGIYTCSAQGVWMNKVLGRSLPTCLPVCGLPKFSRKLMAR
chain 2: IFNGRPAQKGTTPWIAMLSHLNGQPFCGGSLLGSSWIVTAAHCLHQSLDPEDPTLRDSDLLSPSDFKIILGKHWRLRSDENEQHLGVKHTTLHPQYDPNTFENDVALVELLESPVLNAFVMPICLPEGPQQEGAMVIVSGWGKQFLQRFPETLMEIEIPIVDHSTCQKAYAPLKKKVTRDMICAGEKEGGKDACAGDSGGPMVTLNRERGQWYLVGTVSWGDDCGKKDRYGVYSYIHHNKDWIQRVTGVRN
C1-inhibitor
  kobs with C1-inhibitor, fold less than for the MASP-2 CCP1-CCP2-SP fragment: 5 fold
C1-inhibitor; [C1-inh] = 350 nM, 37° C., pH 7.4
  kobs, pseudo-first order rate of reaction with C1-inh: 0.0014 s⁻¹
P1 Arg oligopeptide
  efficiency of digestion of the P1 Arg peptide relative to the corresponding fragment of MASP-2: 4-5 fold
C4
  C4 kcat: 0.002 ± 0.001 s⁻¹
